Laboratory results: US12263210B2, “Immunogenic compounds for cancer therapy” (priority 2016, dated 2025)
Blank lines part the entries; values can stand above or below the sequence they belong to.

Columns and labels:
[1] = system: IFNγ-producing cells (splenocytes); experiment: ELISPOT-IFNγ assay on splenocytes of vaccinated β/A2/DR3 mice; assay type: in vivo, mouse; details: for Percentage of ConA-induced response (ELISPOT-IFNγ): mice vaccinated with the labelled peptide (100 μg s.c. + HHD-DR3, IFA, d0/d14), mean, SEM
HLA-A*0201 = molecular target: T1, HLA-A*0201 (Homo sapiens, UniProt P04439, D140Y/D185E/D98H/E176V/E277Q/G131W/G231S/I119V/I121R/I166T/I218V/L300P/L318F/N151K/N90K/P208A/P217A/Q86G/Q94H/R138H/R169H/T345S); experiment: Affinity of the peptide to T2 cell line (HLA-A*0201 expression, FACS); assay type: cell-based; details: for Concentration that induces 20% of expression of the HLA-A*0201 / Mean fluorescence intensity: T2 ATCC cells; for Concentration that induces 20% of expression of the HLA-A*0201: Example 1; for Binding to HLA-A*0201 (in words) / Affinity to HLA-A*0201 compared with the corresponding human peptide (in words): T2 cells; for Affinity to HLA-A*0201 compared with the corresponding human peptide (in words): relative affinity, lower value = higher affinity; for Relative affinity: conc. inducing 20% expression / same of reference peptide HIV pol 589-597; for HLA-A2 labelling at 0.1 μM / HLA-A2 labelling at 1 μM / HLA-A2 labelling at 10 μM / HLA-A2 labelling at 100 μM: percentage of labelling of HIV pol 589-597 at 100 μM; for HLA-A2 labelling at 0.1 μM: peptide 0.1 μM; for HLA-A2 labelling at 1 μM: peptide 1 μM; for HLA-A2 labelling at 10 μM: peptide 10 μM; for HLA-A2 labelling at 100 μM: peptide 100 μM
T1 construct: the human tumoral cell T2 which expresses the HLA-A*0201 molecule; endogenous in cells; host or cells: T2 cells (human, TAP1/2 negative; 'T2 ATCC Cells')
Description: Affinity measurement of the peptides is achieved with the human tumoral cell T2 which expresses the HLA-A*0201 molecule, but which is TAP1/2 negative and incapable of presenting endogenous peptides.
T2 cells (2.10^5 cells per well) are incubated with decreasing concentrations of peptides from 100 μM to 0.1 μM in a AIMV medium supplemented with 100 ng/μl of human β2m at 37° C. for 16 hours. Cells are then washed two times and marked with the anti-HLA-A2 antibody coupled to PE (clone BB7.2, BD Pharmagen).
The analysis is achieved by FACS (Guava Easy Cyte). […]

[2] = ex vivo re-stimulation with IL13RA2-B pAg 10 μM
[3] = ex vivo re-stimulation with IL13RA2-H pAg 10 μM

Sequence: FLPFGFILV [IL13RA2-B]
- T cell responses in the ELISPOT-IFNγ assay after vaccination (in words) ([1]; compared to IL13RA2-H-vaccinated animals (group 2)): improved T cell responses
- Percentage of ConA-induced response (ELISPOT-IFNγ) [1, 2]: 56.3%
- Percentage of ConA-induced response (ELISPOT-IFNγ) [1, 3]: 32.3%
- Concentration that induces 20% of expression of the HLA-A*0201 (HLA-A*0201): 4.4 µM
- Mean fluorescence intensity (HLA-A*0201; peptide at 0.1 μM): 9.9
- Mean fluorescence intensity (HLA-A*0201; peptide at 100 µM): 112.03
- Binding to HLA-A*0201 (in words) (HLA-A*0201): binds strongly

Sequence: ILLGVVFGI [ERBB2-3B4]
- Affinity to HLA-A*0201 compared with the corresponding human peptide (in words) (HLA-A*0201): higher affinity
- Conc. inducing 20% of HLA-A2 expression (HLA-A*0201; Table 7): 0.9 µM

Sequence: RLLEETDLV [ERBB2-1B]
- Affinity to HLA-A*0201 compared with the corresponding human peptide (in words) (HLA-A*0201): higher affinity
- Conc. inducing 20% of HLA-A2 expression (HLA-A*0201; Table 7): 9.5 µM

Sequence: TMNGKSSPV [ENAH-1B]
- Affinity to HLA-A*0201 compared with the corresponding human peptide (in words) (HLA-A*0201): higher affinity
- Conc. inducing 20% of HLA-A2 expression (HLA-A*0201; Table 9): 33.45 µM
- Relative affinity (HLA-A*0201; Table 9): 1.26
- HLA-A2 labelling at 0.1 μM (HLA-A*0201; Table 9): 12.71
- HLA-A2 labelling at 1 μM (HLA-A*0201; Table 9): 14.18
- HLA-A2 labelling at 10 μM (HLA-A*0201; Table 9): 2.93
- HLA-A2 labelling at 100 μM (HLA-A*0201; Table 9): 100.24

Sequence: TMNGSKSPV [ENAH-1H, reference compound]
- Binding to HLA-A*0201 (in words) (HLA-A*0201): does not bind
- HLA-A2 labelling at 0.1 μM (HLA-A*0201; Table 9): 8.31
- HLA-A2 labelling at 1 μM (HLA-A*0201; Table 9): −2.93
- HLA-A2 labelling at 10 μM (HLA-A*0201; Table 9): 19.07
- HLA-A2 labelling at 100 μM (HLA-A*0201; Table 9): 18.58

Sequence: VLLGVVFGV [ERBB2-3B2]
- Affinity to HLA-A*0201 compared with the corresponding human peptide (in words) (HLA-A*0201): higher affinity
- Conc. inducing 20% of HLA-A2 expression (HLA-A*0201; Table 7): 6.9 µM
- Relative affinity (HLA-A*0201; Table 7): 0.19
- HLA-A2 labelling at 0.1 μM (HLA-A*0201; Table 7): −14.62
- HLA-A2 labelling at 1 μM (HLA-A*0201; Table 7): 1.51
- HLA-A2 labelling at 10 μM (HLA-A*0201; Table 7): 56.97
- HLA-A2 labelling at 100 μM (HLA-A*0201; Table 7): 335.97

Sequence: VMLGVVFGI [ERBB2-3B3]
- Affinity to HLA-A*0201 compared with the corresponding human peptide (in words) (HLA-A*0201): higher affinity
- Conc. inducing 20% of HLA-A2 expression (HLA-A*0201; Table 7): 12.5 µM

Sequence: VMLGVVFGV [ERBB2-3B1]
- Affinity to HLA-A*0201 compared with the corresponding human peptide (in words) (HLA-A*0201): higher affinity
- Conc. inducing 20% of HLA-A2 expression (HLA-A*0201; Table 7): 9 µM

Sequence: VVLGVVFGI [ERBB2-3H, reference compound]
- Conc. inducing 20% of HLA-A2 expression (HLA-A*0201; Table 7): 16.3 µM
- Relative affinity (HLA-A*0201; Table 7): 0.45
- HLA-A2 labelling at 0.1 μM (HLA-A*0201; Table 7): −12.61
- HLA-A2 labelling at 1 μM (HLA-A*0201; Table 7): −24.03
- HLA-A2 labelling at 10 μM (HLA-A*0201; Table 7): 11.93
- HLA-A2 labelling at 100 μM (HLA-A*0201; Table 7): 196.47

Sequence: WLPFGFILI [IL13RA2-H, reference compound]
- Percentage of ConA-induced response (ELISPOT-IFNγ) [1, 2]: 2.0%
- Percentage of ConA-induced response (ELISPOT-IFNγ) [1, 3]: 1.1%
- Concentration that induces 20% of expression of the HLA-A*0201 (HLA-A*0201): 100 µM
- Binding to HLA-A*0201 (in words) (HLA-A*0201): does not bind

The next lines start with the values.

- Conc. inducing 20% of HLA-A2 expression (HLA-A*0201; Table 8): 1.76 µM
Sequence: GLPPDVQRV [MMP2-H, reference compound]

- Affinity to HLA-A*0201 compared with the corresponding human peptide (in words) (HLA-A*0201): higher affinity
- Conc. inducing 20% of HLA-A2 expression (HLA-A*0201; Table 8): 18.24 µM
Sequence: ITSDVPFSV [PMEL-B]

- Affinity to HLA-A*0201 compared with the corresponding human peptide (in words) (HLA-A*0201): higher affinity
- Conc. inducing 20% of HLA-A2 expression (HLA-A*0201; Table 8): 30.91 µM
Sequence: KLVEWLAML [MAGE C1B]

- Conc. inducing 20% of HLA-A2 expression (HLA-A*0201; Table 8): 60.07 µM
Sequence: KVVEFLAML [MAGE C1H, reference compound]

- Conc. inducing 20% of HLA-A2 expression (HLA-A*0201; Table 8): 33.45 µM
Sequence: MIAVFLPIV [STEAP-H, reference compound]

- Affinity to HLA-A*0201 compared with the corresponding human peptide (in words) (HLA-A*0201): higher affinity
- Conc. inducing 20% of HLA-A2 expression (HLA-A*0201; Table 8): 5 µM
Sequence: MLAVFLPLV [STEAP-B1]

- Affinity to HLA-A*0201 compared with the corresponding human peptide (in words) (HLA-A*0201): higher affinity
- Conc. inducing 20% of HLA-A2 expression (HLA-A*0201; Table 8): 0.88 µM
Sequence: SLPPDVQQV [MMP2-B]

- Affinity to HLA-A*0201 compared with the corresponding human peptide (in words) (HLA-A*0201): higher affinity
- Conc. inducing 20% of HLA-A2 expression (HLA-A*0201; Table 8): 8.22 µM
Sequence: YLAVFLPIV [STEAP-B2]
